The target in the assay is T1, rat αKlotho (endogenous) (rat, UniProt Q9Z2Y9 35-983).
T1 sequence (looked up): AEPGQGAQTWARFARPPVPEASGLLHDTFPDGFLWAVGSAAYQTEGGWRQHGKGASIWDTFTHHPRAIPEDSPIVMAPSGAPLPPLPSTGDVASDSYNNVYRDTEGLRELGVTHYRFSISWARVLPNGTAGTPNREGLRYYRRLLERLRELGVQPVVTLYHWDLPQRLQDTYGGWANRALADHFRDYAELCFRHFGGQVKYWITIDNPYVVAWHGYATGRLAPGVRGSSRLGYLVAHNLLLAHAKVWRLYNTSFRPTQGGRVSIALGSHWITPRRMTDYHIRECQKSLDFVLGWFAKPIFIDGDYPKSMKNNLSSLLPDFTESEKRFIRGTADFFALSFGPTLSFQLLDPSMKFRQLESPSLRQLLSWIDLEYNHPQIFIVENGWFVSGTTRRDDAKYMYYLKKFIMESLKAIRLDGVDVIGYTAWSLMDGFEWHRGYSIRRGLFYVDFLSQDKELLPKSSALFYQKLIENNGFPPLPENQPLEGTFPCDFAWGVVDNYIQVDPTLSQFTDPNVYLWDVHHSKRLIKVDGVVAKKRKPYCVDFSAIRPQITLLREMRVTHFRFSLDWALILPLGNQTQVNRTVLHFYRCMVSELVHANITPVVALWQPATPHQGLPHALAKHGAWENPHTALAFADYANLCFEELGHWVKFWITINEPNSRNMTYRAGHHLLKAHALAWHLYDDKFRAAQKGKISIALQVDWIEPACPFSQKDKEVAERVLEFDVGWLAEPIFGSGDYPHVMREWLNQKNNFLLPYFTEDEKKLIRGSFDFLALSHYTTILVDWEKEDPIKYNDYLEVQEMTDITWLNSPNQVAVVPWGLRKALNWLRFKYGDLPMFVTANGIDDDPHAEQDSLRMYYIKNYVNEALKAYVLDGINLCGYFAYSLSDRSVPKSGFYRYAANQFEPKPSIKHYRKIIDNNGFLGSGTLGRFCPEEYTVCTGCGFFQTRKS
Kind of assay: immunohistochemistry, unfixed frozen rat parathyroid tissue. How it is done:
For labeling, sections were blocked (PBS, 1.5% BSA, 10% goat serum; 40 min) and incubated with the primary antibody sb106 ([…] in blocking solution; 4° C. overnight). After washing (PBS), sections were incubated with the Alexa 546 goat anti-human IgG (1:800 dilution, Invitrogen) for 1 hour at room temperature. After additional washes with PBS, the sections were fixed with 4% paraformaldehyde in PBS, washed with PBS, and mounted and visualized with a Zeiss LSM510 microscope.
Sb106 was highly reactive against αKlotho under native conditions. Immunoblot signals under denaturing conditions against mouse, rat, and human kidney tissue were weak, but in samples from transgenic mice overexpressing αKlotho [79], sb106-Fab detected a band corresponding to the full-length extracellular domain of αKlotho (FIG. 2A). In cultured cells, sb106-Fab was not able to detect αKlotho in immunoblots under denaturing conditions with lysates from NRK cells expressing native αKlotho but it was able to detect overexpressed antigen in cell lysates from HEK293 cells transfected with αKlotho (FIG. 2B). […] Cells were then incubated with sb106-Fab (5 μg/ml in 1% BSA in PBS) for 1 hr. […]

B1: sb106 IgG (antibody, V domains shown)
VH: EVQLVESGGGLVQPGGSLRLSCAASGFNISYYSIHWVRQAPGKGLEWVAYISPSYGYTSYADSVKGRFTISADTSKNTAYLQMNSLRAEDTAVYYCARYYVYASHGWAGYGMDYWGQGTLVTVSS
VL: DIQMTQSPSSLSASVGDRVTITCRASQSVSSAVAWYQQKPGKAPKLLIYSASSLYSGVPSRFSGSRSGTDFTLTISSLQPEDFATYYCQQAGYSPITFGQGTKVEIKR
notes: also called sb106 (48) full length IgG
With B1, the binding result was “binds”.

(Values after US20190041402A1 (GOVERNING COUNCIL OF THE UNIVERSITY OF TORONTO, published 2019).)
